Measured values taken from US20240076406A1, “SINGLE DOMAIN ANTIBODIES TARGETING CA-IX AS WELL AS COMPOSITIONS COMPRISING SAME” (National Research Council of Canada, priority 2021, published 2024).
Where two headings read alike, the source gives them in different places.

B1: sdCA9-2-VHH: llama single domain antibody (VHH) binding CA-IX catalytic domain, amino acid sequence SEQ ID NO: 5 (protein)
VHH: QVKLEESGGDLVQPGGSLRLSCAASGFTLDYYAIGWFRQAPGKEREGVSCFSSVDGSTYYADSVKGRFTISRDNAKNMVYLQMNSLKPEDTAIYYCAAELYGELGVATVQAMCRLTTPGGDYWGQGTQVTVSS
modifications: Amino acid sequence for sdCA9-2-VHH
B2: sdCA9-3-VHH: llama single domain antibody (VHH) binding CA-IX, amino acid sequence SEQ ID NO: 9 (protein)
VHH: QVQLVESGGGLVQAGDSLRLSCAASGGTFSRYGMGWFRQAPGKEREFVAAISGTGLNTYYMDSVKGRFTISRDNAENTVYLQMNSLKPEDTAVYYCARDRGGVEYDYWGQGTQVTVSS
modifications: A 118 amino acid sequence for CA9-3-VHH
B3: sdCA9-1-VHH: llama single domain antibody (VHH) binding CA-IX catalytic domain, amino acid sequence SEQ ID NO: 1 (protein)
VHH: QVQLVESGGGLVQAGGSLRLSCAASGFTFDDWAIGWFRQAPGKEREGVSCISKRHGTTHYADSVKGRFTISSDNAKNTVYLRMNGLKPEDTAVYYCAASSWGSCTVATMRDVDRYDYDYWGQGTQVTVSS
modifications: Amino acid sequence for sdCA9-1- VHH

Columns and labels:
human CA-IX = human CA-IX (Homo sapiens, UniProt Q16790); assay: ELISA species cross reactivity, human CA-IX; assay type: binding; conditions: 500 nM sdCA9-VHH
Experimental: (§1) Binding above background was measured in an ELISA assay for the binding of 500 nM of sdCA9-VHH antibodies to human CA-II, CA-IV, CA-IX, CA-XII and CA-XIV (isoform cross reactivity, upper panel), then CA-IX for mouse, human, cynomolgus monkey and dog (species cross reactivity, lower panel). (sdCA9-1-VHH ( ? ) and sdCA9-2-VHH ( ? )
(§2) Cross reactivity and CA-IX specificity. Binding specificity and species cross reactivity of two sdAb were tested in an ELISA assay using purified proteins for human, mouse, cynomolgus monkey and dog CA-IX.

dimeric CA-IX = target: T1, dimeric CA-IX (Homo sapiens, UniProt Q16790); assay: SPR binding affinity, VHH format, dimeric CA-IX; conditions: SPR data (FIG. 3A); monomer or dimer not specified
T1 construct: to the dimeric extracellular domain (ECD) of hCA-IX
Experimental: FIG. 3A is a graph showing the binding kinetics determined by surface plasmon resonance (SPR) for 3 CA-IX single domain antibodies (sdCA9-1, -2, -3-VHH) to the dimeric extracellular domain (ECD) of hCA-IX.
In vitro binding affinity/SPR. To evaluate the binding affinity (KD) of the VHH only format of the […] single domain antibodies, CA-IX monomer and dimer were immobilized on SA sensor chip (GE Healthcare) and serial dilutions of the sdAbs were injected over the surface (FIG. 3A). […] The two single domain antibodies sdCA9-1-VHH and sdCA9-2-VHH were selected for further characterizations.

[1] = test system: 67NR^hCA-IX derived spheroids; assay: Spheroid growth inhibition, 67NR^hCA-IX; assay type: cell-based, mouse; conditions: for spheroid growth, different concentrations: monitored for 8 days, compared with 67NR derived spheroids
Source text: (§3) Spheroid growth inhibition.

[2] = target: T2, purified hCA-IX ECD dimer (Homo sapiens, UniProt Q16790); assay: In vitro rhCA-IX enzyme activity inhibition (4Mu-Ac hydrolysis); assay type: biochemical; conditions: for IC50: 4Mu-Ac substrate; for inhibition of hCA-IX enzyme activity, in words: hCA-IX dimer, 4Mu-Ac hydrolysis
T2 construct: in vitro enzyme activity assay using purified hCA-IX ECD dimer
Experimental: In vitro rhCA-IX enzyme activity inhibition. In order to examine the functional consequence of the binding of the two sdCA9-VHH antibodies to hCA-IX ECD, antibodies were tested in an in vitro enzyme activity assay using purified hCA-IX ECD dimer and 4-Methylumbelliferyl acetate (4Mu-Ac) as substrate.

cyno CA-IX = assay: ELISA species cross reactivity, cynomolgus monkey CA-IX; assay type: binding; conditions: 500 nM sdCA9-VHH
Experimental: as §1, §2

dog CA-IX = dog CA-IX (Canis lupus familiaris, UniProt A0A8I3NCN1); assay: ELISA species cross reactivity, dog CA-IX; assay type: binding; conditions: 500 nM sdCA9-VHH
Experimental: as §1, §2

[3] = test system: hCA-IX negative parental 67NR spheroids; assay: Spheroid growth inhibition, parental 67NR; assay type: cell-based, mouse; conditions: hCA-IX negative cells
Source text: as §3

mouse CA-IX = mouse CA-IX (Mus musculus, UniProt Q8VHB5); assay: ELISA species cross reactivity, mouse CA-IX; assay type: binding; conditions: 500 nM sdCA9-VHH
Experimental: as §1, §2

[4] = [inhibitor] vs. normalized response - variable slope
[5] = [inhibitor] vs. normalized response - variable slope, read-out: IC50 (best fit value)

Chain of dog CA-IX (A0A8I3NCN1 38-461): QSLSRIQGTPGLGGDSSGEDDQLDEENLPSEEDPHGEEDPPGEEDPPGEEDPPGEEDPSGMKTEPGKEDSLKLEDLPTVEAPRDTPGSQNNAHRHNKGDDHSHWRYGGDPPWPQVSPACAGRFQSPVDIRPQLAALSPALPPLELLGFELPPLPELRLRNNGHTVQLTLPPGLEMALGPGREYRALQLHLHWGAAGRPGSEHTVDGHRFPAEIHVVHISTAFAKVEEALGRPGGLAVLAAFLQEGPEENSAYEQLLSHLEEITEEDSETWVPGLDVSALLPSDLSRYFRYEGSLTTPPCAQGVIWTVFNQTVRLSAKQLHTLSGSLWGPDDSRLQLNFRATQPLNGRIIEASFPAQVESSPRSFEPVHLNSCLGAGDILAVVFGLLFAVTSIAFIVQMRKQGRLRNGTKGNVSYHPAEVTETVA
Chain of mouse CA-IX (Q8VHB5 32-437): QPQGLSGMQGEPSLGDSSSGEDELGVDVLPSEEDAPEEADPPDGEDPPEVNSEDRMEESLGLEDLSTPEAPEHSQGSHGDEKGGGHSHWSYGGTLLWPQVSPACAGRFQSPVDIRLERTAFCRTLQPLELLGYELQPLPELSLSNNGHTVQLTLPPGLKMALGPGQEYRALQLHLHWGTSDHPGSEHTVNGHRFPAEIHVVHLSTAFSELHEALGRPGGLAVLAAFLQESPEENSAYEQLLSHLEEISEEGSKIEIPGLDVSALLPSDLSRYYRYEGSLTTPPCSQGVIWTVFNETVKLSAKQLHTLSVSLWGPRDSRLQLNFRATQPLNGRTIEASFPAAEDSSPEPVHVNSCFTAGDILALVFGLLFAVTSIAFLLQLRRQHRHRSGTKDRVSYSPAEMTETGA

| Molecule | binding to human CA-IX (human CA-IX) | binding to CA-IX by SPR, in words (dimeric CA-IX) | growth of spheroids over time ([1]; 100 μg/mL) | spheroid growth, different concentrations [1] | HillSlope (best fit value) [2, 4] | IC50 [2, 5] [nM] | inhibition of hCA-IX enzyme activity, in words [2] | binding to cyno CA-IX (cyno CA-IX) | binding to dog CA-IX (dog CA-IX) | effect on parental 67NR spheroids [3] | IC50 ([2]; hCA-IX-ECD dimer, read-out: IC50 values) [nM] | binding to mouse CA-IX (mouse CA-IX) |
| --- | --- | --- | --- | --- | --- | --- | --- | --- | --- | --- | --- | --- |
| B1 | selectively binds | bind with high affinity | specifically inhibits the growth of 67NR^hCA-IX spheroids over time | inhibited spheroid growth in a dose-dependent manner | −0.2974 | 48.4 | inhibited the hCA-IX enzyme activity to similar levels achieved by SMI U104 | selectively binds | – | – | – | – |
| B2 | – | binds with high affinity but less so than the other two | – | – | – | – | – | – | – | – | – | – |
| B3 | binds | bind with high affinity | – | seemed not to be specific | −0.1194 | 111 | only partially | binds | binds | hCA-IX non-specific phenotype | ~100 | binds |
